The target in assay [1] is T1, CD19 on CD19-expressing Raji B cells (human, UniProt P15391 20-556).
T1 construct: whole, on cells
T1 sequence (looked up): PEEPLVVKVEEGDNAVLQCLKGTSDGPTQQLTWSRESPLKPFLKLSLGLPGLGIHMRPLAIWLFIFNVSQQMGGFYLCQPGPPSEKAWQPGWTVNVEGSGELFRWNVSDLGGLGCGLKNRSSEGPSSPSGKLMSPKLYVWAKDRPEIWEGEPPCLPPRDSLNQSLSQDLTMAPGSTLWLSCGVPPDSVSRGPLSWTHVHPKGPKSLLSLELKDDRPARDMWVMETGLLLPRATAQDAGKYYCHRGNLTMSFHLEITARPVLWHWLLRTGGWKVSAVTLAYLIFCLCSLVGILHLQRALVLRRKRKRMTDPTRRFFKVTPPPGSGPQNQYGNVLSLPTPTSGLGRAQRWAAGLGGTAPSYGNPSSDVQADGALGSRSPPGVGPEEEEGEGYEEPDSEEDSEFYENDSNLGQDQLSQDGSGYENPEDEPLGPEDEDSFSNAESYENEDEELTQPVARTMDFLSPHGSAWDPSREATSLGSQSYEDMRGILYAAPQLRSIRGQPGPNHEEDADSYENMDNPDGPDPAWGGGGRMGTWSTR
The assay is described as follows: FACS, Raji cells. (In general: Flow cytometry measures light scatter and fluorescence of single cells or particles in a stream.)

The target in assay [2] is T1, CD19 on CD19-expressing Raji B cells. The assay is described as follows: FACS, Raji cells. The source holds these as a separate data set.
The target in assay [3] is T2, CD32aWT (UniProt P12318 36-218).
T2 construct: also called CS32a
T2 sequence (looked up): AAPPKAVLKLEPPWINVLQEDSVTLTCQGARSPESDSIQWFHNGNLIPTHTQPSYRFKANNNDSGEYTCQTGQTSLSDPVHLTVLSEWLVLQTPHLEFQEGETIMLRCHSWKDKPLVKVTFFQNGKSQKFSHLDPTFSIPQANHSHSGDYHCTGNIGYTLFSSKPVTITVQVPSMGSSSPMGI
The assay is described as follows: SPR, antibody captured, FcγR injected. In general terms: SPR reads the build-up and loss of mass on a sensor chip optically.

For assay [4], the target named is T3, CD32bWT (UniProt P31994 43-217).
T3 sequence (looked up): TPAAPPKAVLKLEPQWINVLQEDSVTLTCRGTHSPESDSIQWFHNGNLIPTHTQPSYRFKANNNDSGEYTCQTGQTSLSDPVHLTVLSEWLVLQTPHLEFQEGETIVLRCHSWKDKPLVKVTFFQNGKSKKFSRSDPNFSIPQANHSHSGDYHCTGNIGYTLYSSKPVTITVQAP
The assay is described as follows: SPR, antibody captured, FcγR injected.

Assay [5] addresses T4, CD3 on CD3-expressing T cells (Jurkat, HPB-ALL) (UniProt P07766 23-207).
T4 construct: whole, on cells; A multi-chain complex on cells; also called CD3 complex
In words: FACS, Jurkat cells.

Assay [6] concerns the target T4, CD3 on CD3-expressing T cells (Jurkat, …). The assay is described as follows: FACS, HPB-ALL cells.
Assay [7] shares this target. In words: FACS, HBP-ALL T cells.
The target of assay [8] is CD16aWT (UniProt P08637 17-208). In words: SPR, antibody captured, FcγR injected.
For assay [9], the target named is T5, mouse CD19 on Mouse spleen cells (mouse, UniProt P25918).
T5 construct: on the surface of freshly isolated mouse spleen cells
T5 sequence (CD19 on the cell surface, looked up): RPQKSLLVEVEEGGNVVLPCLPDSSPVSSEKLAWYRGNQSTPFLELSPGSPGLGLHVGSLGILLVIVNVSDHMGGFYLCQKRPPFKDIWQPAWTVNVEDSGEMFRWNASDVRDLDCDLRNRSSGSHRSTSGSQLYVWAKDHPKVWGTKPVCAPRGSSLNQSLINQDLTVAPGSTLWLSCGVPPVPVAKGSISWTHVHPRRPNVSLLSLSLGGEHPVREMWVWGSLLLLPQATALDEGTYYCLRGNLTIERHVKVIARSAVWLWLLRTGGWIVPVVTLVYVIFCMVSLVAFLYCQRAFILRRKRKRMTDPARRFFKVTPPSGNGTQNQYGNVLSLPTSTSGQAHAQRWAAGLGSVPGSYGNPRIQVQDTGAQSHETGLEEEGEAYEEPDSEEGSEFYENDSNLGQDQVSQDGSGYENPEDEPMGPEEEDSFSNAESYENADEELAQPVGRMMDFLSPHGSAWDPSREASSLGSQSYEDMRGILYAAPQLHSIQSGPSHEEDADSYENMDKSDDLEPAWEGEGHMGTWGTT
The assay is described as follows: FACS on freshly isolated mouse spleen cells, Mean RFU normalized to human IgG.

The target of assay [10] is T4, CD3 on CD3-expressing T cells (Jurkat, …). In words: whole cell binding by FACS on CD3-expressing Jurkat T cells; concentration not shown.
The target in assay [11] is T6, cynomologous CD3 receptor antigen (coated, ELISA) (cynomolgus [Macaca fascicularis], UniProt Q95LI5 22-117).
T6 sequence (looked up): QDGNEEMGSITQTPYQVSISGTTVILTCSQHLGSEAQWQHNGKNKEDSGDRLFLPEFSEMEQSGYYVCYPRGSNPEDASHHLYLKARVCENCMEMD
In words: ELISA on coated cynomolgus CD3 receptor antigen ('Cyno-CD3-HEK'), anti-human Fcgamma specific secondary antibody, TMB, OD450.

Assay [12] concerns the target T1, CD19 on CD19-expressing Raji B cells. In words: FACS, Raji cells. The source holds these as a separate data set.
Assay [13] shares this target. The assay is described as follows: whole cell binding by FACS on Raji B cells, RFU against concentration (nM, log axis).

One may read the Kd as the equilibrium constant for the complex coming apart. In general, EC50 (read off the curve) refers to the midpoint of the concentration-response curve. Higher therefore signals weaker potency.

Positions count from the first letter of the chain named. Numbers in names are those of the source. Where two headings read alike, the source gives them in different places.

B1: v4542, cyno/human cross-reactive anti-CD3 BiTE 12C (VH-VL) scFv / anti-CD19 MOR208 (VH-VL) scFv heterodimeric knock-out Fc (bispecific antibody)
chain 1: not shown
chain 2: EVQLVESGGGLVKPGGSLKLSCAASGYTFTSYVMHWVRQAPGKGLEWIGYINPYNDGTKYNEKFQGRVTISSDKSISTAYMELSSLRSEDTAMYYCARGTYYYGTRVFDYWGQGTLVTVSSGGGGSGGGGSGGGGSDIVMTQSPATLSLSPGERATLSCRSSKSLQNVNGNTYLYWFQQKPGQSPQLLIYRMSNLNSGVPDRFSGSGSGTEFTLTISSLEPEDFAVYYCMQHLEYPITFGAGTKLEIKAAEPKSSDKTHTCPPCPAPEAAGGPSVFLFPPKPKDTLMISRTPEVTCVVVSVSHEDPEVKFNWYVDGVEVHNAKTKPREEQYNSTYRVVSVLTVLHQDWLNGKEYKCKVSNKALPAPIEKTISKAKGQPREPQVYVLPPSRDELTKNQVSLLCLVKGFYPSDIAVEWESNGQPENNYLTWPPVLDSDGSFFLYSKLTVDKSRWQQGNVFSCSVMHEALHNHYTQKSLSLSPGK
Turning to B1, in assay [1], the “Bmax (OD450)” value was determined as 2.96 OD450 and the Kd came to 0.7 nM.

B2: v5851, hybrid: aCD3-BiTEx_I2C_scFvFc (VHVL) chain A / aCD19-MOR208_Fab chain B and light chain (bispecific antibody)
chain 1: not shown
chain 2: not shown
chain 3: DIVMTQSPATLSLSPGERATLSCRSSKSLQNVNGNTYLYWFQQKPGQSPQLLIYRMSNLNSGVPDRFSGSGSGTEFTLTISSLEPEDFAVYYCMQHLEYPITFGAGTKLEIKRTVAAPSVFIFPPSDEQLKSGTASVVCLLNNFYPREAKVQWKVDNALQSGNSQESVTEQDSKDSTYSLSSTLTLSKADYEKHKVYACEVTHQGLSSPVTKSFNRGEC
As for B2, in assay [1], the “Bmax (OD450)” value was 3.88 OD450 and the Kd was determined as 1.38 nM.

B3: v1379, anti-CD19 BiTE (VL-VH) scFv / anti-CD3 BiTE (VH-VL) scFv heterodimeric Fc (bispecific antibody)
chain 1: DIQLTQSPASLAVSLGQRATISCKASQSVDYDGDSYLNWYQQIPGQPPKLLIYDASNLVSGIPPRFSGSGSGTDFTLNIHPVEKVDAATYHCQQSTEDPWTFGGGTKLEIKGGGGSGGGGSGGGGSQVQLQQSGAELVRPGSSVKISCKASGYAFSSYWMNWVKQRPGQGLEWIGQIWPGDGDTNYNGKFKGKATLTADESSSTAYMQLSSLASEDSAVYFCARRETTTVGRYYYAMDYWGQGTTVTVSSAAEPKSSDKTHTCPPCPAPELLGGPSVFLFPPKPKDTLMISRTPEVTCVVVDVSHEDPEVKFNWYVDGVEVHNAKTKPREEQYNSTYRVVSVLTVLHQDWLNGKEYKCKVSNKALPAPIEKTISKAKGQPREPQVYVYPPSRDELTKNQVSLTCLVKGFYPSDIAVEWESNGQPENNYKTTPPVLDSDGSFALVSKLTVDKSRWQQGNVFSCSVMHEALHNHYTQKSLSLSPGK
chain 2: not shown
notes: WT effector Fc; copies: 1 + 1
As to B3, the Kd worked out at 2.12 nM in [2], 600 nM in [3] and 470 nM in [4].

B4: v875, bispecific anti-CD19 BiTE (VL-VH) scFv / anti-CD3 OKT3 (VL-VH) scFv on a heterodimeric IgG1 Fc (bispecific antibody)
chain 1: B3 chain 1 with V387T
chain 2: not shown
notes: Chain A/B is assigned by order only; copies: 1 + 1
For B4, in assay [5], the “Bmax (OD450)” value was found to be 1.59 OD450. Also, the dissociation constant (Kd) was found to be 21.4 nM in assay [5]; 4.7 nM in assay [6]; 19.1 nM in assay [7]; 1000 nM in [8]; 590 nM in [3]; 430 nM in [4]. The binding result in assay [9] was “no binding (tested: 100 nM)”.

B5: one-armed anti-CD19 antibody (v869: anti-CD19 BiTE scFv (VL-VH) on chain A, Fc only on chain B) (antibody)
chain 1: B3 chain 1 with V387T
chain 2: not shown
notes: also called anti-CD19 OAA; anti-CD19 one arm constructs
Regarding B5, the binding result in [10] is given as “no binding”.

B6: v1666-213-A (bispecific antibody)
chain 1: not shown
chain 2: B3 chain 1 with L271A, L272A, D302S, Y388L, T403L, K429L, T431W, A442F, V444Y
On to B6, for which, in [11], the binding result is reported as “no binding (tested: 300 nM)”.

B7: v873, bispecific anti-CD19 BiTE (VL-VH) scFv / anti-CD3 BiTE (VH-VL) scFv on a heterodimeric IgG1 Fc (bispecific antibody)
chain 1: B3 chain 1 with V387T
chain 2: not shown
notes: chain A/B is assigned by order only; also called bispecific CD19-CD3(VH-VL-BiTE)
As for B7, in assay [12], the affinity, expressed as Kd, was 2.7 nM. For the same molecule, the binding result in [9] is reported as “no binding (tested: 100 nM)”. In [13], the “EC50 (read off the curve)” value was around 3 nM.

B8: v1381, anti-CD19 BiTE (VL-VH) scFv / anti-CD3 BiTE (VH-VL) scFv heterodimeric Fc with N297A (bispecific antibody)
chain 1: B3 chain 1 with N334A
chain 2: not shown
notes: Fc knock-out N297A on both chains; copies: 1 + 1
Molecule B8 came in with a Bmax in assay [2] of 13900. The molecule further came in with a Kd in [2] of 2.36 nM. For the same molecule, the binding result in [8], in [3] and in [4] was “no binding (tested: FcγR injected up to 10,000 nM)” in each case.

Source of the values: patent US20240343802A1 (Zymeworks, published 2024).
